Where a chain is given by its changes, count along the chain named. One block for each binder: values may come before it.
What was measured:
[1] = target: T1, EcoP15I Res peptide 126-145 (spot B6) (UniProt Q5ZND2 126-145); experiment: peptide array
T1 chain: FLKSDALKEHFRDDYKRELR

[2] = target: T2, EcoP15I Res strongest DNA-binding region (array peptides) (UniProt Q5ZND2 637-670); experiment: peptide array
T2 chain: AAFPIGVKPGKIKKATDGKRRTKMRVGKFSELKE

[3] = target: T3, EcoP15I Res peptide 531-550 (spot F7) (UniProt Q5ZND2 531-550); experiment: peptide array
T3 chain: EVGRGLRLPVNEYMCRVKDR

[4] = target: T4, EcoP15I Res translocase (Tr) domain (UniProt Q5ZND2 1-705); experiment: EMSA
T4 sequence: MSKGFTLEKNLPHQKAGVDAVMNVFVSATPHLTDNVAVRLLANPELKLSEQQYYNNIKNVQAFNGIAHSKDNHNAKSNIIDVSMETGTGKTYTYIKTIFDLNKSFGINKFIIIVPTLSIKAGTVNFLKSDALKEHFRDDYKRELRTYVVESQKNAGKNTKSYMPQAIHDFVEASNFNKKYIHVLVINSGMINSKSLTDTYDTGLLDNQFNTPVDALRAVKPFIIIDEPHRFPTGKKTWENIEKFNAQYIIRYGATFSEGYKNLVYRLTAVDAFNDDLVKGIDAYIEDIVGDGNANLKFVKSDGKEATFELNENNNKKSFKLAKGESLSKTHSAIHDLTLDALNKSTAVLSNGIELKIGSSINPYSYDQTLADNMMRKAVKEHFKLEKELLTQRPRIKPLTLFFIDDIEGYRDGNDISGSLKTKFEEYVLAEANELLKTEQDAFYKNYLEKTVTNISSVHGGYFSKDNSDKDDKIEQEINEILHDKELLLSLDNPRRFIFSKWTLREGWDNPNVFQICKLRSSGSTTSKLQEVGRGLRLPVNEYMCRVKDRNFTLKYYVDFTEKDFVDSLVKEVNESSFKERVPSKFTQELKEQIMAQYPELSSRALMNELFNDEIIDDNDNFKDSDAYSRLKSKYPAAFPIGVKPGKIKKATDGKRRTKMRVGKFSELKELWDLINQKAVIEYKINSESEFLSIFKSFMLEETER

[5] = target: EcoP15I Mod subunit;EcoP15I Res subunit (Escherichia coli?;Escherichia coli?, UniProt P12364;Q5ZND2 1-644;1-970, |); experiment: EMSA
[6] = target: T5, EcoP15I Mod subunit;EcoP15I Res translocase (Tr) domain (Escherichia coli?;Escherichia coli?, UniProt P12364;Q5ZND2 1-644;1-705, |); experiment: EMSA
T5 sequence 1: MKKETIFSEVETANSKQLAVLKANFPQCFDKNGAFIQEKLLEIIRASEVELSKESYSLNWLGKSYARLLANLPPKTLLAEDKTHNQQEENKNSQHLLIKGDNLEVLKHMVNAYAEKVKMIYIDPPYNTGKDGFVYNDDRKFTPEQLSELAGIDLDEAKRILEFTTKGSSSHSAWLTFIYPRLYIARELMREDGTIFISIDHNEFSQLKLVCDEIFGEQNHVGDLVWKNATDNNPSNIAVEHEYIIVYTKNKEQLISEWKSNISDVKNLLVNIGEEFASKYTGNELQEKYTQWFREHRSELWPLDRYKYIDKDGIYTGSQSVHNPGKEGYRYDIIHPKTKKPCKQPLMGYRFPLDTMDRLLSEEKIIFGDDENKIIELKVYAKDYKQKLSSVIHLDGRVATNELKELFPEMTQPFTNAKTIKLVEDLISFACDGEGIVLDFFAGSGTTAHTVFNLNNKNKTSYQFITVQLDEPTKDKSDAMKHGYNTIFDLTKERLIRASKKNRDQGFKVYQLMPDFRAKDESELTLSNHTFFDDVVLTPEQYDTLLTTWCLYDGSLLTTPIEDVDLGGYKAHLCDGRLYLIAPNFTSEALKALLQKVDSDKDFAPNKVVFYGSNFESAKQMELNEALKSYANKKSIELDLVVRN
T5 sequence 2: T4 sequence

AUC = target: the molecule itself; experiment: AUC
[7] = target: T6, EcoP15I Res subunit (earlier preparations from pACYC177, no affinity tag) (UniProt Q5ZND2 1-970); experiment: densitometry of SDS-PAGE of the purified enzyme
T6 sequence (looked up): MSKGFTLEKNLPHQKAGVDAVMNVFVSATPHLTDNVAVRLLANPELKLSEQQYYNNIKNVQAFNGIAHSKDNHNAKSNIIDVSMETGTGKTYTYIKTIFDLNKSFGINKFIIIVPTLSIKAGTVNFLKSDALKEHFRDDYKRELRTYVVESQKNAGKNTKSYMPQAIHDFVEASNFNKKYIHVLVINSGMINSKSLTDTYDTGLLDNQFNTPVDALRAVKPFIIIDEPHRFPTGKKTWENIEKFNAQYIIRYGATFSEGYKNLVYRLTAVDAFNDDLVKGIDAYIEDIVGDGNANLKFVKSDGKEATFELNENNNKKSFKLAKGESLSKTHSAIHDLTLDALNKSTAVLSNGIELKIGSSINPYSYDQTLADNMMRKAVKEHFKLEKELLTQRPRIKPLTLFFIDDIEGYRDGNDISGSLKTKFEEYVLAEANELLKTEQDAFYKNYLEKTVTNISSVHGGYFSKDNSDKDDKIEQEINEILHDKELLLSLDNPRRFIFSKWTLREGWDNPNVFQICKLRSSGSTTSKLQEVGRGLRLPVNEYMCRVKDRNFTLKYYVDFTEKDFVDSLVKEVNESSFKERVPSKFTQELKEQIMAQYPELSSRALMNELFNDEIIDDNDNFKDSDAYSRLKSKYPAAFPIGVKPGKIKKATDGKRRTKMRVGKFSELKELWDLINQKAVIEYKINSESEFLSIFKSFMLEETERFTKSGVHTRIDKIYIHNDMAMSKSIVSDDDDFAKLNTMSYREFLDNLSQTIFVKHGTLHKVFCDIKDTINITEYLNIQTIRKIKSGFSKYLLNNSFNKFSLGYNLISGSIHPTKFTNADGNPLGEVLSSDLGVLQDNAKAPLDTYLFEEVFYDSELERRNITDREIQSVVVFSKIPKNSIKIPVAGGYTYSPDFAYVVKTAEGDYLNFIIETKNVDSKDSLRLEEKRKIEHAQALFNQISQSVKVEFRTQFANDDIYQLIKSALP

[8] = target: T7, EcoP15I Res subunit, C-terminally His6-tagged (from pQEP15) (UniProt Q5ZND2 1-970); experiment: second-derivative UV absorption spectroscopy
T7 sequence (looked up): T6 sequence (looked up)

[9] = target: T7, EcoP15I Res subunit, C-terminally …; experiment: SEC

B1: KW30-1/KW30-1c, specific dsDNA (dsDNA)
DNA 1: CGTAATCGTACCCAGCAGATATCGGTACCG
DNA 2: CGGTACCGATATCTGCTGGGTACGATTACG
- binding result [1]: no binding
- binding result [2]: binds
- binding result [3]: no binding

B2: SR60-1/SR60-1c, dsDNA one site (dsDNA)
DNA 1: GGTCGACGAACCGTAATCGTACCCAGCAGATATCGGTACCGTTCGGTAATATTCCGACGG
DNA 2: CCGTCGGAATATTACCGAACGGTACCGATATCTGCTGGGTACGATTACGGTTCGTCGACC
- Kd [4]: 128 nM
- Kd [5]: 16 nM
- Kd [6]: 121 nM

B3: SR60-1, ssDNA (ssDNA)
DNA: B2 DNA 1
- Kd [4]: 268 nM
- Kd [5]: 267 nM
- Kd [6]: 346 nM

B4: SR60-0/SR60-0c, dsDNA no site (dsDNA)
DNA 1: B2 DNA 1 with C24G, G26A, A28C
DNA 2: B2 DNA 2 with T33G, C35T, G37C
- Kd [4]: 93 nM
- Kd [5]: 37 nM
- Kd [6]: 160 nM

B5: EcoP15I MTase (Mod subunit, C-terminally His-tagged) (enzyme, UniProt P12364 1-644, looked up)
chain: T5 sequence 1
- stoichiometry N (AUC): 2

- stoichiometry N [7]: 1.8 ± 0.15 Mod:Res
B6: EcoP15I Mod subunit (earlier preparations from pACYC177, no affinity tag) (natural protein, UniProt P12364 1-644, looked up)
chain: T5 sequence 1

- stoichiometry N [8]: 2 Mod:Res
- Mod:Res ratio in SEC peak 1 [9]: ~1 Mod:Res
- stoichiometry N [9]: 1.8 Mod:Res
B7: EcoP15I Mod subunit (untagged, from pQEP15) (natural protein, UniProt P12364 1-644, looked up)
chain: T5 sequence 1

Reference: publication PMC3333885 (Nucleic Acids Research, 2011)
